Assay [1] addresses FGFR3 extracellular domain, immobilized (R3-Fc) (UniProt P22607). The assay can be described thus: ELISA: biotinylated ligand on immobilized FGFR-Fc, HRP-streptavidin. (In general: In an ELISA, binding on a coated surface is turned into a signal by an enzyme label.)
Assay [2] has the same target. The assay is described as follows: functional ELISA on immobilized FGFR.
Assay [3] has as its target FGFR2 extracellular domain, immobilized (R2-Fc) (UniProt P21802). The assay can be described thus: functional ELISA on immobilized FGFR.
Assay [4] has as its target FGFR1 extracellular domain, immobilized (R1-Fc) (UniProt P11362). The assay is described as follows: functional ELISA on immobilized FGFR.
In assay [5] the target is FGFR3-IIIc stably expressed on FDCP cells (UniProt P22607). The assay is described as follows: cell-based or functional assay.
Assay [6] deals with FGFR2 extracellular domain, immobilized (R2-Fc) (UniProt P21802). The assay can be described thus: ELISA: biotinylated ligand on immobilized FGFR-Fc, HRP-streptavidin.
For assay [7], the target named is FGFR1 extracellular domain, immobilized (R1-Fc) (UniProt P11362). Described as above.

Sequence of FGF-18^Δ31 (O76093 other isoform, or with tags, fused parts or gaps mutant limits assumed): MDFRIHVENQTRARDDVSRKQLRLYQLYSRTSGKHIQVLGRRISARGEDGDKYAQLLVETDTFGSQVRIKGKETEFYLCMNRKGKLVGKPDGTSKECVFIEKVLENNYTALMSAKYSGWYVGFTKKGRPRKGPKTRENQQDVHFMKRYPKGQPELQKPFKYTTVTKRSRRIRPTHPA
Sequence of FGF-18^Δ51 (O76093 other isoform, or with tags, fused parts or gaps mutant limits assumed): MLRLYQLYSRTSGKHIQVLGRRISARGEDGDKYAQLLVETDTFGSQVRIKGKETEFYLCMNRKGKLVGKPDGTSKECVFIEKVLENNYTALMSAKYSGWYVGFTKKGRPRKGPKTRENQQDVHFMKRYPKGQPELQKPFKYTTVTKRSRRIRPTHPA
Sequence of FGF-18 (recombinant wild type, mature form without the signal peptide) (O76093 other isoform, or with tags, fused parts or gaps): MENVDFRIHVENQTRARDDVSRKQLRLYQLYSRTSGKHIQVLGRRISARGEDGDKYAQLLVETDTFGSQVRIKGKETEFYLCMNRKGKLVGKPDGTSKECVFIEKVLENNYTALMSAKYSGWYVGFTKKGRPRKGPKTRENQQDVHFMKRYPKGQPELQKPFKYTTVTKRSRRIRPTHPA
Sequence of FGF-18^Δ37 (O76093 other isoform, or with tags, fused parts or gaps mutant limits assumed): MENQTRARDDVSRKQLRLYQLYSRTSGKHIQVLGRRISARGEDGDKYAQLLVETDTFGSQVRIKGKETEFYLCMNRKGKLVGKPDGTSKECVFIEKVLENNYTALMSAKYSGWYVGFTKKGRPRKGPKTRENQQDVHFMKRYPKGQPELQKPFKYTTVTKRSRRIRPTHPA
Sequence of FGF-18^Δ45 (O76093 other isoform, or with tags, fused parts or gaps mutant limits assumed): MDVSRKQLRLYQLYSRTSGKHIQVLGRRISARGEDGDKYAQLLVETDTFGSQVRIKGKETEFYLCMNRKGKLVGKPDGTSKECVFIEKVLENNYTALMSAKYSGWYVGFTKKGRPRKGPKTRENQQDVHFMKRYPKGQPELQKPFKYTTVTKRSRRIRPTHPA
Sequence of FGFR3-IIIc stably expressed on FDCP cells (P22607 23-806): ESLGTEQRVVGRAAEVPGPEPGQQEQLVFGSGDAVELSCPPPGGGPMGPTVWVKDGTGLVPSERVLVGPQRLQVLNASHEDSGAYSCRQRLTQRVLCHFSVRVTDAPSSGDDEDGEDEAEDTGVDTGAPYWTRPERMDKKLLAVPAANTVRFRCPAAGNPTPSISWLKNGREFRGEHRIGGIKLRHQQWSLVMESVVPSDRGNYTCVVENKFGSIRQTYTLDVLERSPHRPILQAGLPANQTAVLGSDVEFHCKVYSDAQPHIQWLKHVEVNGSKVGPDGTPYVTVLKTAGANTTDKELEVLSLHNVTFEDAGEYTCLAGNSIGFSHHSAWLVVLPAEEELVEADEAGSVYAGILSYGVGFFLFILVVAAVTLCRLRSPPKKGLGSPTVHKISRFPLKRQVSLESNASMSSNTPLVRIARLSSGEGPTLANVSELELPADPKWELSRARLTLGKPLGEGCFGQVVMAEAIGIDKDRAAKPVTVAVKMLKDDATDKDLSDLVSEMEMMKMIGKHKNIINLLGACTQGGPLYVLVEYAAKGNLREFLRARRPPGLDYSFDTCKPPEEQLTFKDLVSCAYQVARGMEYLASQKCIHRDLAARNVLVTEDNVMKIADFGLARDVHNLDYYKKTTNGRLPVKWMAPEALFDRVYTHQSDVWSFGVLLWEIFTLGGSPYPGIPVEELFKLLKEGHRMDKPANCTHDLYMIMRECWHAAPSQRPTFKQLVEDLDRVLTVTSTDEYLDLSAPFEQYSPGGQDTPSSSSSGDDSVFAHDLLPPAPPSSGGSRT
Sequence of FGF-18^Δ33 (O76093 other isoform, or with tags, fused parts or gaps mutant limits assumed): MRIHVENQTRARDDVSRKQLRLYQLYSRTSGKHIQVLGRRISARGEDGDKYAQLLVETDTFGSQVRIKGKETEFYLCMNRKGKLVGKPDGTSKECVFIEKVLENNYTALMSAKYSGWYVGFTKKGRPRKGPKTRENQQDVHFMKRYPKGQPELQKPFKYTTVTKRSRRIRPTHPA

A word on the EC50: it is the concentration giving half of the maximal effect. A higher EC50 goes with weaker potency. Consider “FGF-18^Δ45 (from UniProt O76093 46-207) (ligand)”, for which the 50% effective concentration (EC50) in assay [1] stood at 9.16 ng/mL.

Turning to “FGF-18^Δ37 (from UniProt O76093 38-207) (ligand)”, the EC50 was found to be 5.94 ng/mL in assay [1] and 9.75 ng/mL in assay [2].

The substance “FGF-18^Δ33 (from UniProt O76093 34-207) (ligand)” came in with a 50% effective concentration (EC50) in assay [2] of 8.27 ng/mL.

For “FGF-18^Δ51 (from UniProt O76093 52-207) (ligand)”, the EC50 in assay [1] stood at 10.2 ng/mL; in assay [3], 0.0435 µg/mL; in assay [2], 9.99 ng/mL; in assay [4], 0.0419 µg/mL.

For the substance “FGF-18^Δ31 (from UniProt O76093 32-207) (ligand)”, the concentration for a half-maximal effect (EC50) in assay [3] was determined as 0.0112 µg/mL; in assay [2] it was 8.55 ng/mL; in assay [4], 0.0244 µg/mL.

In assay [5], “FGF-2 wild type (from UniProt P09038 134-288) (ligand)” displayed an EC50 scores of FGF ligands in cell proliferation of FDCPR3 of 1.19 ng/mL.

Take “FGF-18 (recombinant wild type, mature form without the signal peptide) (from UniProt O76093 29-207) (ligand)”: the half-maximal effective concentration (EC50) was determined as 9.51 ng/mL in assay [6]; 5.04 ng/mL in assay [1]; 0.0282 µg/mL in assay [7]; 0.00876 µg/mL in assay [3]; 6.59 ng/mL in assay [2]; 0.0228 µg/mL in assay [4].

Source of the values: patent US20130225493A1.
